Results as given in US20250296984A1, “THERAPEUTIC AND DIAGNOSTIC AGENTS AND USES THEREOF” (priority 2022, published 2025).

Experiments:
[1] = target: T1, human proteins on HuProt Human Proteome Microarray (Homo sapiens, UniProt Q13895); assay: HuProt Human Proteome Microarray, off-target human proteins; assay type: binding; parameters: key to Z Score: Z = (F635 − mean F635 of all spots) / SD; average of duplicate spots; key to S Score: difference between this protein's Z score and the next-ranked protein's; conditions: Protein: BYSL
T1 construct: purchased CDI Labs (HuProt); host or cells: yeast S. cerevisiae
T1 sequence (Q13895 1-437): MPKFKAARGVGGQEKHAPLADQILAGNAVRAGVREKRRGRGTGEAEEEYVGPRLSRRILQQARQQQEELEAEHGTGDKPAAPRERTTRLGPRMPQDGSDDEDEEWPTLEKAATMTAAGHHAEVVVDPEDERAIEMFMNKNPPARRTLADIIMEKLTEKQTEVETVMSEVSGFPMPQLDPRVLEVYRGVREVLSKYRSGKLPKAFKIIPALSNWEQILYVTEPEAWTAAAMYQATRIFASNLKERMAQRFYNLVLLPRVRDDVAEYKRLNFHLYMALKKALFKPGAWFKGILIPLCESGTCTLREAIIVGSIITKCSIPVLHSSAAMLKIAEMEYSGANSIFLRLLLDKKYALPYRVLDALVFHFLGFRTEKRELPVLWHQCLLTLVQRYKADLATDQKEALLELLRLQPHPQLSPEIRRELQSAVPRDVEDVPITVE
Source text: (§1) The HuProt™ Human Proteome Microarray provides the largest number of unique, full-length, individually purified human proteins on a single microscope slide. It provides >21,000 unique human proteins, isoform variants, and protein fragments—covering 16,794 unique genes. This includes 15,889 of the 19,613 canonical human proteins described in the Human Protein Atlas, with broad coverage across protein subclasses. This allows thousands of interactions to be profiled in a high-throughput manner. The full-length recombinant proteins are expressed in the yeast S. cerevisiae, purified, and printed on glass slides in duplicate along with a set of control proteins (GST, BSA, histones, IgG, etc.). The full list of the different proteins included in the HuProt™ Human Proteome Microarray as used in this Example is provided as “List B” in the Research Disclosures publication (ISSN 0374-4353, Questel Ireland Ltd) with database numbers 707018, 707019 and 707020, each entitled “Large scale protein arrange target protein identities” and each digitally published on 27 Jan. 2023, the contents of each of which are incorporated herein by reference in their entirety, fo the purposes of the disclosure of the proteins defined by “List B”. “List B” begins in Research Disclosures publication 707018, is continued in Research Disclosures publication 707019, and concludes Research Disclosures publications 707020, and so the three publications are to be read consecutively as a single disclosure of the “List B” proteins. The HuProt™ microarray is not restricted to a particular type of surface coating, although the default is glass coated with ultrathin nitrocellulose film for the non-covalent, yet irreversible, capture of active proteins to the surface.
(§2) Samples of humanised 7B1F3 and mouse 7B1F3 antibodies were analysed for binding specificities on HuProt™ human proteome arrays. A peptide with the sequence TDVLNQSKPVTL (“Peptide 3”) was added to the arrays at 0.1 mg/ml as a control.
(§3) After blocking, the arrays were probed with the antibody samples (0.1 μg/ml) at room temperature for 1 hour. Then the arrays were washed with TBST for 10 min×3 and probed with Alexa647-anti-human IgG Fc or Alexa647-anti-mouse IgG secondary antibodies under conditions optimized by CDI Labs for signal detection.
(§4) • Non-specific hits that directly bind to the secondary antibodies were eliminated from the analysis of the samples. • CDI software was used to quantify the specificity of each individual sample to specific proteins on the array based on Z Scores. • Z score is the average Z score of the duplicate spots of a given protein (each protein is printed in duplicate on a HuProt™ array). The Z score of each spot on a given array is calculated according to the algorithm below:
(§5) Z=[F635−F635(avg)]/F635(std) • F635(avg) and F635(std) are the average and standard deviation of the F635 values of all spots on the array, respectively. • S score is the difference of the Z Scores of a given protein and the one ranked next to it. If the S score of the top hit is >3, the antibody is considered to be highly specific for the top hit. • F635 is the average foreground signal intensity of 2 replicate spots of a given protein in the detection channel (635 nm). • B635 is the average background signal intensity of 2 replicate spots of a given protein in the detection channel (635 nm).

[2] = system: human proteins on HuProt Human Proteome Microarray; assay: as above; assay type: binding; parameters: key to Z Score: Z = (F635 − mean F635 of all spots) / SD; average of duplicate spots; key to S Score: difference between this protein's Z score and the next-ranked protein's
Source text: as §1, §2, §3, §4, §5

[3] = system: HCMV infected lung tissue; assay: Immunohistochemistry (IHC) on human lung tissue; conditions: normal lung tissue with HCMV DNA positive macrophages
Source text: FIG. 12. […] binding in 1:400 dilution (w/v) to HCMV-infected human tissues were studied by using immunohistochemistry analysis (IHC). […] The arrows (in the non-colour version of this figure) mark the US28-13-5G6-1D3 rAb cytoplasmic staining on typical HCMV infected alveolar cells with the characteristic cytomegalo effect in the HCMV positive control slide. […] C. The same macrophages show positive HCMV DNA in the same lung biopsy, whereas there are no HCMV DNA signals in normal alveolar cells, which is coherent with the US28 staining in the same sample. […] E. The IE staining is negative for the alveolar HCMV positive macrophages in normal lung tissue. […] Colour versions of FIG. 12 are also provided alongside the non-colour versions.
FIG. 25. The binding of the N-terminal antibodies to HCMV infected lung tissue and HCMV negative myometrium were studied by IHC. […] C. […] E. Mouse lung tissue with staining IgG was used as negative control antibody. […] As with the US28-13-5G6-1D3 rAb, the ECD1-binding molecules stained typical HCMV infected cells with the characteristic cytomegalo effect, showing strong cytoplasmic or membranous staining in these cells, as the US28 protein is known to be located in cytoplasm and cell membrane, and stained positively for some tissue macrophages, which are known to be carriers of latent or reactivated HCMV.

B1: 7B1F3: mouse IgG1 kappa antibody against US28 ECD1 Peptide-N; VH SEQ ID NO: 211, VL SEQ ID NO: 213 (antibody, V domains shown)
VH: EVQLQQSGAELAKPGASVKMSCKASGYTFTNYWMHWVKQRPGQGLEWIGYVNPRTGYTEYNQKFKDKATLTADKSSRTAYMQLSSLTSEDSAVYSCARILNGTGFAYWGQGTLVTVSA
VL: DIVLTQSPSSLTVSVGEKFTMSCKSSQSLLYSSNQKNYLAWYQQKPGQSPKLLIYWASTRESGVPDRFTGSGSGTDFTLAISSVKPEDLAIYYCQQYYSFPLTFGAGTKLEIK
modifications: Mature form of VH sequence of 7B1F3, without the leader sequence; Mature form of VL sequence of 7B1F3, without the leader sequence
[1]
  F635: 2210
  Z Score: 6.3
[2]; Protein: AGAP2
  F635: 10020.5
  S Score: 15.511
  Z Score: 28.997
[2]; Protein: BYSL
  S Score: 0.378
[2]; Protein: CCDC97
  S Score: 0.353
[2]; Protein: DNAJB2
  F635: 3312
  S Score: 0.235
  Z Score: 9.502
[2]; Protein: EXD2
  F635: 2701.5
  S Score: 1.271
  Z Score: 7.728
[2]; Protein: FBXO2
  S Score: 2.911
[2]; Protein: LASP1
  S Score: 1.073
[2]; Protein: SYNCRIP
  F635: 2264
  S Score: 0.157
  Z Score: 6.457
[2]; Protein: TRIM33
  F635: 3231
  S Score: 1.539
  Z Score: 9.267

B2: 13-5G6-1D3: mouse monoclonal IgG1 kappa antibody against US28 ECD3; VH SEQ ID NO: 12, VL SEQ ID NO: 18 (antibody, V domains shown)
VH: EVKLVESGGGLVQPGGSLRLACATSGFTFTDYYMSWVRQPPGKALEWLGFIRSKANGYTTEYSASVKGRFTISRDNSQSILYLQMNTLRSEDSATYYCARDERRTAWLAYWGQGTLVTVSA
VL: DVLMTQTPLSLPVSLGDQASISCRSSQSIVHSNGNTYLDWYLQKPGQSPKLLIYKVSNRFSGVPDRFSGSGSGTDFTLKISRVEAEDLGVYYCFQGSHVPTWTFGGGTKLEIK
modifications: Mature form of VH sequence of 1D3, without the leader sequence; Mature form of VL sequence of 1D3, without the leader sequence
[3]
  IHC staining of normal lung tissue: positive US28 staining for macrophages, but negative staining for alveolar cells
